Results taken from the supplement of paper PMC10567573.
± gives the standard deviation.

Experiment: protein stability index of a GFP-peptide fusion (GPS, HEK-293T) (PSI 1-6); higher = more stable
Details: c terminus: a fixed tail appended
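Further: 24-mer peptide tiles fused after GFP, lentivirally expressed, FACS-sorted into six equal bins by GFP/DsRed ratio, decoded by Illumina sequencing, PSI is the read-weighted mean bin number.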

Row | Sequence | protein stability index (treatment: DMSO) | protein stability index (treatment: MLN4924 1 uM, 8 h)
1 | LGRSHDTVQEAATSRRARASKKTA [MFSD9] | 5.2 ± 0.21 | 5.31 ± 0.16
2 | VKSRGKRLALEKVPKVGQRFNRIG [PI4K2A] | 3.23 ± 0.49 | 3.46 ± 0.21
3 | GCFLLILGQIVLLPAEARERSRGR [MATN2] | 1.97 ± 0.083 | 2.31 ± 0.48
4 | STLGGDIRESDPEQAPAPGEATAA [TBX6] | 5.65 ± 0.14 | 5.53 ± 0.38
5 | DSYCDALTRPEPVHEFCAGRECQP [ADAMTSL2] | 4.86 ± 0.1 | 4.57 ± 0.29
6 | DLVAMQWADAAGEAVPEGPDGGGP [ZSWIM9] | 4.99 ± 0.33 | 5.17 ± 0.12
7 | ERIQELEDLLAKEKDNSRRMLTDK [LMNB1] | 4.85 ± 0.29 | 4.91 ± 0.34
8 | RYADLEAVNRARRPLARPIKPNEI [RHOBTB2] | 3.77 ± 0.21 | 3.7 ± 0.22
9 | AAWIGGFLHSLVQFLFIYQLPFCG [OR4A15] | 3.92 ± 0.8 | 3.21 ± 0.6
10 | VNIEWHRFRFGQDQLLLATGLNNG [WSB1] | 2.76 ± 0.41 | 2.58 ± 0.45
11 | PTFKSFEERVETTVTSLKTKVGGT [TPD52L1] | 4.64 ± 0.25 | 4.65 ± 0.033
12 | SYRETRRKEGIVKLKPHEEPLRSE [PTPN9] | 4.66 ± 0.079 | 4.73 ± 0.3
13 | CEITKRRRKACQACRFTKCLRVGM [ESRRA] | 2.26 ± 0.17 | 2.32 ± 0.22
14 | PDARPHRRPHELLPVGGRLPGPTR [HAGHL] | 4.6 ± 0.14 | 4.57 ± 0.3
15 | CMGAMSLFLPCLLCYPPAKGCLKL [SPRY1] | 2.8 ± 0.56 | 3.04 ± 0.83
16 | ASLNGYRLGERVLQVSFKTSKQHK [ELAVL3] | 3.45 ± 0.13 | 3.52 ± 0.32
17 | LTPGFSDNAIMLFSPDFTLRNTLK [FAN1] | 2.4 ± 0.3 | 2.65 ± 0.54
18 | YDSQPQDVLGIRQLERPLPLTSVC [TRAF3IP2] | 3.68 ± 0.065 | 3.74 ± 0.23
19 | RHMREENLRLQRKLQREMERREAL [CCDC6] | 3.96 ± 0.36 | 4.39 ± 0.15
20 | RLFPYSQYYRWLNYGGVIKNYFQH [PRIM1] | 2.15 ± 0.75 | 2.22 ± 0.52
21 | EILLHPWFESVLEPGYIDSEIGTS [TRIB1] | 2.44 ± 0.29 | 2.56 ± 0.43
22 | VVLTFITPMLNPLIYTLKNAEMKS [OR4A15] | 3.22 ± 0.073 | 2.99 ± 0.63
23 | LETFGHLLSIGPELPKPEVISQLE [ZNF8] | 3.94 ± 0.38 | 3.93 ± 0.19

Row | Sequence | protein stability index (treatment: DMSO) | protein stability index (treatment: MLN4924 1 uM, 8 h)
24 | EKKKGKAKKKRLTKADIGTPSNFQ [WASL] | 4.62 ± 0.099 | 4.63 ± 0.062
25 | TILLDGRRVKLQLWDTSGQGRFCT [RAB40B] | 2.28 ± 0.22 | 2.14 ± 0.13
26 | RTSVGVAVLGGFLYAVGGQDGVSC [KLHL20] | 2.37 ± 0.17 | 2.45 ± 0.38
27 | EGPALVEIDRSVENTLLNSQMVST [MIA2] | 4.54 ± 0.26 | 4.63 ± 0.22
28 | YLDKAPPPGLPAETIKDLMRQFLR [CDK4] | 4.45 ± 0.2 | 4.23 ± 0.39
29 | KSSGRFLWIKFFAAGELESMGFSA [NETO1] | 2.59 ± 0.54 | 2.64 ± 0.73
30 | ESHATLTLAQAHFNNGEYAEAEAL [TTC32] | 5.19 ± 0.2 | 5.04 ± 0.15
31 | QTALLESSCENKRADLVFIIDSSR [MATN2] | 3.05 ± 0.24 | 3.24 ± 0.28
32 | RHQRIHTGERPYECNECGKAFSRS [ZSCAN9] | 3.29 ± 0.24 | 3.82 ± 0.31
33 | KSPSSPQAAFTQQGMEGIKVFLHE [TBX5] | 3.58 ± 0.23 | 3.68 ± 0.26
34 | TVDCEPSDLFRLQEYNIPGVIQSV [CDS2] | 3.01 ± 0.29 | 3.16 ± 0.25
35 | DNIVNCNEFLCTLQKKLDNLQCLY [ZNF277] | 2.36 ± 0.39 | 2.07 ± 0.43
36 | EFQERARKRIRTYLKSCRRMKKNG [NOL4L] | 3.31 ± 0.19 | 3.19 ± 0.23
37 | ATRGVPAKRLLDADDAAAVAAKCP [TRIB1] | 4.39 ± 1.5 | –
38 | LVQLRGRLTSQDWERVHLIVAGGY [ALG2] | 2.03 ± 0.62 | 2.44 ± 0.58
39 | PMMEHEMGGHHPGADYPVDGLPDL [CTNNB1] | 5.2 ± 0.23 | 5.24 ± 0.13
40 | YQELLNVKMALDIEIATYRKLLEG [PRPH] | 2.22 ± 0.22 | 2.43 ± 0.081
41 | QAYKWSNKLQYHAGLASGLLNQQS [MED27] | 2.46 ± 0.28 | 2.42 ± 0.096
42 | VIVWDGDTTRQVQRISCFQSTVKC [WDR41] | 2.31 ± 0.31 | 2.01 ± 0.11
43 | PPIPILELADHIERLKANDNLKFS [PTPRD] | 3.56 ± 0.19 | 3.32 ± 0.2
44 | RYHVIRKLGWGHFSTVWLCWDMQG [SRPK2] | 2.83 ± 0.74 | 2.69 ± 0.27
45 | DQKVPYIFRDNQWVGFDDVESFKT [CHIT1] | 3.67 ± 0.18 | 3.53 ± 0.28
46 | DEKQRDPRIEASKVLLCHGELRSK [NET1] | 4.42 ± 0.21 | 4.63 ± 0.22

Row | Sequence | protein stability index (treatment: DMSO) | protein stability index (treatment: MLN4924 1 uM, 8 h)
47 | RDQQVEAAQRALVEVLGPYEPLLS [RETREG3] | 3.9 ± 0.17 | 4.14 ± 0.17
48 | QAKPEKAAVAQKPRSHFTTPAPMS [MYBL2] | 4.44 ± 0.34 | 4.39 ± 0.11
49 | DIRYLLGYVSQQGGQRSTPLIIAA [FEM1B] | 2.5 ± 0.41 | 2.62 ± 0.21
50 | EGKAPIISGVTKAISSPTVSRLTD [TPPP] | 4.52 ± 0.2 | 4.51 ± 0.36
51 | RKDLAKLHREVRSTPLTATPGGRG [VTI1B] | 4.38 ± 0.17 | 4.45 ± 0.17
52 | YISHRELGDCMRTLGYMPTEMELL [CABP4] | 2.27 ± 0.34 | 2.48 ± 0.43
53 | FVEYCDVNNDKSISVQELMGCLGV [SMOC2] | 2.39 ± 0.86 | 2.46 ± 0.38
54 | QEILLAHRRFCELLPQEQRSVESS [CIB1] | 4.16 ± 0.15 | 4.32 ± 0.11
55 | LWENTRFTDCSFFVRGQEFKAHKS [SPOPL] | 2.74 ± 0.32 | 2.98 ± 0.25
56 | DTCPEVGFFDVLGNDRRREWAALG [ACBD3] | 3.09 ± 0.4 | 3.76 ± 0.14
57 | FNSTYNARVKAFNKTGVSPYSKTL [TRIM9] | 2.55 ± 0.41 | 2.85 ± 0.38
58 | GDIQELYDTTLALGHAAAFSDDCD [GLT8D2] | 5.24 ± 0.12 | 5.23 ± 0.14
59 | VRCGLLGSLGPVPVLRFDALWQVL [TRIM14] | 2.29 ± 0.39 | 2.29 ± 0.49
60 | EMKLQKNFLTQRENTIAGANHTHT [C10orf62] | 3.78 ± 0.44 | 3.65 ± 0.4
61 | KKTSITQQPSKHRTDEELQPPTTT [PLK2] | 5.27 ± 0.2 | 5.26 ± 0.16
62 | ERPQDRDTPVQNKRRRSVTPPEEQ [CDC25B] | 5.34 ± 0.18 | 5.32 ± 0.23
63 | IMVGFILYCSTPTRTAEPAESSVP [SLC35F2] | 3.15 ± 0.68 | 2.62 ± 1
64 | SFCHGSSLKRHLKTHTGEKPHRCH [ZNF449] | 3.45 ± 0.27 | 3.61 ± 0.34
65 | LIPQPLDSEEDEKMEEDIKEEEEK [PCMTD1] | 5.66 ± 0.23 | 5.67 ± 0.22
66 | LGQQQRDMRRDEEGSLCAAHLPKA [FBF1] | 4.97 ± 0.35 | 5.11 ± 0.16
67 | EFEEATGEAGWGAGEGRLGHKRKQ [FOXJ1] | 5.26 ± 0.39 | 5.19 ± 0.5
68 | EVEEVENVQTEFPGEDENPEKASE [TRIM55] | 5.57 ± 0.39 | 5.47 ± 0.52
69 | ADGSLRMDDPKGDFITLYQMASQS [M1AP] | 3.58 ± 0.083 | 3.53 ± 0.15

Row | Sequence | protein stability index (treatment: DMSO) | protein stability index (treatment: MLN4924 1 uM, 8 h)
70 | RGQCLLYNWEEERATNHLDQVPSM [SPAG8] | 3.13 ± 0.16 | 3.58 ± 0.42
71 | IFSAPNYCYRCGNQAAIMELDDTL [PPP2CA] | 2.37 ± 0.6 | 2.29 ± 0.4
72 | TLDQTTSEEAPGGTELIQTPLASS [HDAC6] | 5.52 ± 0.22 | 5.49 ± 0.26
73 | VGSVALTALVTVSSEEFEDKWFRK [C8orf76] | 2.26 ± 0.19 | 2.35 ± 0.21
74 | SSGKLICSRTTGYQILTLEKDQEQ [GMCL1] | 3.94 ± 0.46 | 4.37 ± 0.28
75 | ASDMFRRLRDAGFRVTLWVHPFVN [MYORG] | 2.23 ± 0.17 | 2.13 ± 0.053
76 | QSKTASDKSPSTVRDQGPSIPLTP [FBF1] | 5.07 ± 0.21 | 5.15 ± 0.099
77 | SQIETLTSVFQKKLCTAHMCSTLE [MATN2] | 2.03 ± 0.2 | 2.81 ± 0.74
78 | PQEFQKTVSTMYYLWMCSTLALLL [SCAMP3] | 2.88 ± 0.47 | 2.77 ± 0.67
79 | RYQHGIAVIGNFLYVVGGQSNYDT [KLHL13] | 2.42 ± 0.49 | 2.44 ± 0.5
80 | SPFAQFACDNGLNVRGGKPDDITV [PPTC7] | 4.22 ± 0.23 | 4.14 ± 0.16
81 | CSRPSGSSSSSGVLMVGPNFRVGK [CSNK1G1] | 3.63 ± 0.47 | 3.74 ± 0.62
82 | ESSDLQMDVMPGEGDLPQMEVGSG [EID1] | 5.42 ± 0.15 | 5.21 ± 0.3
83 | VFKCSVSRETECSRVGKQSFIITL [CARM1] | 2.65 ± 1.1 | 2.61 ± 0.67
84 | IRDQMQQQLNDYEQLLDVKLALDM [LMNB1] | 3.4 ± 0.25 | 3.48 ± 0.36
85 | LLADVKGARAALNEIESRHRELLR [STX11] | 3.03 ± 0.23 | 3.3 ± 0.41
86 | NTEEQLEIALAPYQHLEEDMKSLK [MTUS2] | 4.78 ± 0.17 | 4.8 ± 0.28
87 | CPECYPDNPANRSLVLPWSFPLEW [TOR1AIP2] | 2.5 ± 0.28 | 2.77 ± 0.24
88 | GILNRPPAPTATVPAPQPPVTKPL [ZNF207] | 4.53 ± 0.19 | 4.57 ± 0.16
89 | NGISPIIIDNTNLHAWEMKPYAVM [N4BP2L1] | 2.46 ± 0.37 | 2.01 ± 0.25
90 | RYLFEEDNLLRSTQKLSHSTKPSG [MATN2] | 3.82 ± 0.3 | 3.92 ± 0.3
